Results on one molecule are retold here after patent US20240409639A1 (CELLDEX THERAPEUTICS, published 2024).

In experiment [1] the target is T1, human PD-1 expressed on cells (human, UniProt Q15116 25-288).
T1 construct: whole, on cells; also called HEK293 cells expressing human PD-1; PD1 Effector cells
Nature of the experiment: flow cytometry on HEK293 cells expressing human PD-1. Here is the method: After 20 minutes, the cells were washed with PBS containing 0.1% BSA and 0.05% NaN₃ (PBA) and the bound antibodies were detected by incubating the cells with a PE labeled goat anti-human IgG Fc-specific probe. The excess probe was washed from the cells with PBA and the cell associated fluorescence was determined by analysis using a FACSCanto II™ instrument (BD Biosciences, NJ, USA) according to the manufacturer's directions.

Experiment [2] addresses T2, recombinant human PD-1-msFc (human, UniProt Q15116 25-167, limits assumed).
T2 construct: not shown: mouse Fc ('msFc')
Nature of the experiment: ELISA, plate coated with recombinant human PD-1-msFc. Here is the method:
Microtiter plates were coated with recombinant human PD-1-msFc in PBS, and then blocked with 5% bovine serum albumin in PBS. […] The plates were washed with PBS/Tween and then incubated with a goat-anti-human IgG Fc-specific polyclonal reagent conjugated to horseradish peroxidase at 37° C. After washing, the plates were developed with HRP substrate, and analyzed at OD 450 using a microtiter plate reader.
(In general: ELISA stands for enzyme-linked immunosorbent assay.)

T2 sequence (Q15116 25-167 limits assumed): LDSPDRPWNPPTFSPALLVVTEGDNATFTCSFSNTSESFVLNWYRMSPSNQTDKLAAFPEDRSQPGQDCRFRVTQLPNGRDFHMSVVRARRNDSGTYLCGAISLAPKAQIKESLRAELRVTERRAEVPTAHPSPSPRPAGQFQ
T1 sequence (Q15116 25-288): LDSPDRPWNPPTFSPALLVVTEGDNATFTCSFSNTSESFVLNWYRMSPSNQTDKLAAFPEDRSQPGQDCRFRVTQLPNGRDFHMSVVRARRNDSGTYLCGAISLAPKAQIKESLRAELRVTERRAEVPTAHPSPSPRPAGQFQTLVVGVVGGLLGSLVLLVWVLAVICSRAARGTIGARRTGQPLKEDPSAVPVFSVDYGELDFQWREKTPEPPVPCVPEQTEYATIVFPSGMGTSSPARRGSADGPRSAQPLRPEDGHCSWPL

B1: bispecific construct CDX-585 (bispecific antibody, human IgG1, kappa)
heavy: QVQLVQSGAEVVKPGASVKISCKASGYTFTDYVMHWVRQAPGQSLEWMGVISTYHIPAVYNQKFKGKATMTVDTSTSTVYLELSSLRSEDTAVYYCAREVYGESYYFDVWGQGTTVTVSSASTKGPSVFPLAPSSKSTSGGTAALGCLVKDYFPEPVTVSWNSGALTSGVHTFPAVLQSSGLYSLSSVVTVPSSSLGTQTYICNVNHKPSNTKVDKKVEPKSCDKTHTCPPCPAPEAQGGPSVFLFPPKPKDTLYITREPEVTCVVVDVSHEDPEVKFNWYVDGVEVHNAKTKPREEQYNSTYRVVSVLTVLHQDWLNGKEYKCQVSNKALPAPIEKTISKAKGQPREPQVYTLPPSRDELTKNQVSLTCLVKGFYPSDIAVEWESNGQPENNYKTTPPVLDSDGSFFLYSKLTVDKSRWQQGNVFSCSVMHEALHNHYTQKSLSLSPGKGSSGGGGSDIQMTQSPSSLSASVGDRVTITCRASENIYSYLAWYQQKPGKAPKFLVYNADTLAEGVPSRFSGSGSGTDFTLTISSLQPEDFATYYCQHHYGTPFTFGCGTKLEIKGGGGSGGGGSGGGGSGGGGSQVQLVQSGAEVKKPGASVKVSCKASGYSFTGYTMHWVRQAPGQCLEWMGLINPYTGGTDYNQKFQGRVTMTVDRSTSTAYMELSSLRSEDTAVYYCARERPGGSQFIYYYALDYWGQGTTVTVSS
light: DIVMTQTPLSLPVTPGEPASISCRSSQSIVHSAGNTYLEWYLQKPGQSPQLLIYKVSNRFSGVPDRFSGSGSGTDFTLKISRVEAEDVGVYYCFQGSHVPYTFGGGTKVEIKRTVAAPSVFIFPPSDEQLKSGTASVVCLLNNFYPREAKVQWKVDNALQSGNSQESVTEQDSKDSTYSLSSTLTLSKADYEKHKVYACEVTHQGLSSPVTKSFNRGEC
notes: Tetravalent format, bivalent for each target; The Fc carries L234A, L235Q, K322Q (AQQ) and M252Y, S254T, T256 (YTE); The scFv is stabilised by a disulfide from Gly to Cys at positions 558 and 629 of the mature heavy chain; also called E1A9-7B1; bsAb
As for B1, the binding result in experiment [1] and in experiment [2] was “binds” each time.
